Data published in publication PMC7851051.
Where two headings read alike, the source gives them in different places.

Columns and labels:
[1] = target: LLO118int single-chain TCR (scTCR), displayed on yeast (mouse); experiment: flow cytometry on cells
[2] = target: LLO118int single-chain TCR (scTCR), displayed on yeast (mouse); experiment: flow cytometry on cells; remark: listed apart in the source
[3] = target: LLO118low single-chain TCR (scTCR), displayed on yeast (mouse); experiment: flow cytometry on cells
[4] = target: LLO56low single-chain TCR (scTCR), displayed on yeast (mouse); experiment: flow cytometry on cells
[5] = target: LLO118_(high) single-chain TCR (scTCR), displayed on yeast (mouse); experiment: flow cytometry on cells; scTCR displayed on yeast stained with LLO_(190-201)/I-A^b tetramer; histograms (Figure 1C)
[6] = target: LLO56int single-chain TCR (scTCR), displayed on yeast (mouse); experiment: as above
[7] = target: LLO56int single-chain TCR (scTCR), displayed on yeast (mouse); experiment: flow cytometry on cells; tetramer decay on yeast-displayed scTCR as above, second round with lower levels of MHC inhibiting-antibody (Figure 2D); multivalent half-life
[8] = target: LLO118_(high) single-chain TCR (scTCR), displayed on yeast (mouse); experiment: flow cytometry on cells; tetramer decay on yeast-displayed scTCR: 6.5 µg/ml tetramer, 1.5 h, room temperature, washed, then anti-mouse MHC class II (M5/114.15.2) added and tetramer followed for 2-60 min; first round (Figure 2C); multivalent half-life
[9] = target: LLO56int single-chain TCR (scTCR), displayed on yeast (mouse); experiment: as above
[10] = target: LLO118_(high) single-chain TCR (scTCR), displayed on yeast (mouse); experiment: flow cytometry on cells; tetramer titration on yeast-displayed scTCR: 1x10^6 induced cells, 0.152 nM to 12.16 nM tetramer, 1.5 h, room temperature; MFI normalised; KD = 50% maximum binding concentration, one site-specific fit; multivalent avidity; percent of cells bound (Figure 2B)
[11] = target: LLO56int single-chain TCR (scTCR), displayed on yeast (mouse); experiment: as above

LLO_(190-201)/I-A^b tetramer (peptide-MHC)
other [1]: 6.7 min
Kd [2]: 44.8 nM
other [2]: 24.5%
other [3]: 1.1%
other [4]: 0.75%
log better tetramer binding than LLO118int [5]: 1 log
log better tetramer binding than LLO118low [5]: 2.5 log
log better tetramer binding than LLO56low [6]: 1.5 log
t1/2 [7]: 3.5 min
t1/2 [8]: 165 m
t1/2 [9]: 1 m
Kd [10]: 7.33 nM
percent of cells bound by tetramer [10]: 43.3%
Kd [11]: 39.2 nM
percent of cells bound by tetramer [11]: 12.6%
